Results: US10941182 (Amgen, dated 2021)
Starred links: 1 amine or outer side, 2 acyl side, 3 side chain; linkers in the order of their positions; H or OH if unused. Non-standard residues stand in square brackets, D forms with d. Primed or numbered codes have the meaning given here. *: point of attachment. NPeg9 = PEG amine from Pra click product: 32-amino-3,6,9,12,15,18,21,24,27,30-decaoxadotriacontyl, NCCOCCOCCOCCOCCOCCOCCOCCOCCOCCOCC*; Pra′ = its azide, alkyne or alkene has reacted where a group follows in round brackets; dBip = N[C@H](Cc1ccc(-c2ccccc2)cc1)C(=O)O; Oic = O=C(O)[C@@H]1C[C@@H]2CCCC[C@@H]2N1; Phe(4-Cl) = N[C@@H](Cc1ccc(Cl)cc1)C(=O)O; dPhe(4-Cl) = N[C@H](Cc1ccc(Cl)cc1)C(=O)O; Phe(4-I) = N[C@@H](Cc1ccc(I)cc1)C(=O)O; γGlu = O=C(O)[C@H](CCC(=O)[*:2])N[*:1]; d1Nal = N[C@H](Cc1cccc2ccccc12)C(=O)O; NMeR = CN[C@@H](CCCNC(=N)N)C(=O)O; Tridecanoyl = CCCCCCCCCCCCC(=O)*; hArg = N=C(N)NCCCC[C@H](N)C(=O)O; Cha = N[C@@H](CC1CCCCC1)C(=O)O; NMeL = CN[C@@H](CC(C)C)C(=O)O; pGlu = O=C1CC[C@@H](C(=O)O)N1; Nle = CCCC[C@H](N)C(=O)O; Orn = NCCC[C@H](N)C(=O)O; AEEA = NCCOCCOCC(=O)O; Aib = CC(C)(N)C(=O)O; Mpa = O=C(O)CCS

T1: rat APJ receptor (rat, UniProt Q9JHG3 1-377)
T1 sequence (looked up): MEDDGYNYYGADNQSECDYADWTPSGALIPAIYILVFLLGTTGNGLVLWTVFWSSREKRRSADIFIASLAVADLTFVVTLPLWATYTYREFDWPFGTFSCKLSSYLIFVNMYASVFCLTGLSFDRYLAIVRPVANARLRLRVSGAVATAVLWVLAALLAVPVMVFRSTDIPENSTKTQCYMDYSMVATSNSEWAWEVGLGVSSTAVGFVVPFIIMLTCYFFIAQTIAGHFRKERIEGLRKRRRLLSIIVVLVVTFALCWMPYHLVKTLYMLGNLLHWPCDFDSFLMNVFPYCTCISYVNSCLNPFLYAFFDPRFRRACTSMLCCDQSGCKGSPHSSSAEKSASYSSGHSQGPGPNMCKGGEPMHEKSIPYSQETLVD

T2: human APJ receptor (human, UniProt P35414 1-380)
T2 sequence (looked up): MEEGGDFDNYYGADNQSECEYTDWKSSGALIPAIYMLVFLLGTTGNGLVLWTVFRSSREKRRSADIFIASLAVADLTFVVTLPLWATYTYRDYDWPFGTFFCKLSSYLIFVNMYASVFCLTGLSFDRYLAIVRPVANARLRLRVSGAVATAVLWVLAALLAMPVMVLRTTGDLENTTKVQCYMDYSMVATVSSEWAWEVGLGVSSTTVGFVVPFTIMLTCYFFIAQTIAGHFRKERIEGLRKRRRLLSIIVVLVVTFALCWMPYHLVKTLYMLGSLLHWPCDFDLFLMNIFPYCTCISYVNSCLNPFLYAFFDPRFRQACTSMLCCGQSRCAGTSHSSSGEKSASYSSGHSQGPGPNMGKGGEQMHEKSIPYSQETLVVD

T3: human APJ receptor (human, UniProt P35414 1-380)
T3 sequence (looked up): T2 sequence (looked up)

T4: rat APJ receptor (rat, UniProt Q9JHG3 1-377)
T4 sequence (looked up): T1 sequence (looked up)

B1: modified apelin polypeptide SEQ ID NO: 337 (peptide)
peptide: Tridecanoyl-[γGlu][AEEA][AEEA]RQRPK[Cha]SH[Nle]G[Oic][Nle]P[Phe(4-Cl)]-OH
SMILES: CCCCCCCCCCCCC(=O)N[C@@H](CCC(=O)NCCOCCOCC(=O)NCCOCCOCC(=O)N[C@@H](CCCNC(=N)N)C(=O)N[C@@H](CCC(N)=O)C(=O)N[C@@H](CCCNC(=N)N)C(=O)N1CCC[C@H]1C(=O)N[C@@H](CCCCN)C(=O)N[C@@H](CC1CCCCC1)C(=O)N[C@@H](CO)C(=O)N[C@@H](Cc1c[nH]cn1)C(=O)N[C@@H](CCCC)C(=O)NCC(=O)N1[C@H](C(=O)N[C@@H](CCCC)C(=O)N2CCC[C@H]2C(=O)N[C@@H](Cc2ccc(Cl)cc2)C(=O)O)C[C@@H]2CCCC[C@@H]21)C(=O)O
B2: modified apelin polypeptide SEQ ID NO: 511 (peptide)
peptide: XXXQRPRLSHKGPXPF
modifications: {TetDDA} [AC4Abu] [Aeea] [Aeea] Q R P [NMeArg] L S H K G P [Nle] P [4-Cl-F] {COOH}: N-terminal tetradecanedioyl (TetDDA)-gammaGlu (AC4Abu)-Aeea-Aeea; NMeArg, Nle, 4-Cl-F non-canonical; free C-terminal acid
B3: modified apelin polypeptide SEQ ID NO: 532 (peptide)
peptide: Tridecanoyl-[γGlu][dQ]RP[NMeR][Cha]SHKG[Oic][Nle][Aib][Phe(4-Cl)]-OH
SMILES: CCCCCCCCCCCCC(=O)N[C@@H](CCC(=O)N[C@H](CCC(N)=O)C(=O)N[C@@H](CCCNC(=N)N)C(=O)N1CCC[C@H]1C(=O)N(C)[C@@H](CCCNC(=N)N)C(=O)N[C@@H](CC1CCCCC1)C(=O)N[C@@H](CO)C(=O)N[C@@H](Cc1c[nH]cn1)C(=O)N[C@@H](CCCCN)C(=O)NCC(=O)N1[C@H](C(=O)N[C@@H](CCCC)C(=O)NC(C)(C)C(=O)N[C@@H](Cc2ccc(Cl)cc2)C(=O)O)C[C@@H]2CCCC[C@@H]21)C(=O)O
B4: modified apelin polypeptide SEQ ID NO: 346 (peptide)
peptide: Tridecanoyl-[γGlu][AEEA][AEEA]RQRPK[Cha]AA[Nle]G[Oic][Nle]P[Phe(4-Cl)]-OH
SMILES: CCCCCCCCCCCCC(=O)N[C@@H](CCC(=O)NCCOCCOCC(=O)NCCOCCOCC(=O)N[C@@H](CCCNC(=N)N)C(=O)N[C@@H](CCC(N)=O)C(=O)N[C@@H](CCCNC(=N)N)C(=O)N1CCC[C@H]1C(=O)N[C@@H](CCCCN)C(=O)N[C@@H](CC1CCCCC1)C(=O)N[C@@H](C)C(=O)N[C@@H](C)C(=O)N[C@@H](CCCC)C(=O)NCC(=O)N1[C@H](C(=O)N[C@@H](CCCC)C(=O)N2CCC[C@H]2C(=O)N[C@@H](Cc2ccc(Cl)cc2)C(=O)O)C[C@@H]2CCCC[C@@H]21)C(=O)O
B5: modified apelin polypeptide SEQ ID NO: 341 (peptide)
peptide: Tridecanoyl-[γGlu][AEEA][AEEA]RQRPK[Cha]SA[Nle]G[Oic][Nle]P[Phe(4-Cl)]-OH
SMILES: CCCCCCCCCCCCC(=O)N[C@@H](CCC(=O)NCCOCCOCC(=O)NCCOCCOCC(=O)N[C@@H](CCCNC(=N)N)C(=O)N[C@@H](CCC(N)=O)C(=O)N[C@@H](CCCNC(=N)N)C(=O)N1CCC[C@H]1C(=O)N[C@@H](CCCCN)C(=O)N[C@@H](CC1CCCCC1)C(=O)N[C@@H](CO)C(=O)N[C@@H](C)C(=O)N[C@@H](CCCC)C(=O)NCC(=O)N1[C@H](C(=O)N[C@@H](CCCC)C(=O)N2CCC[C@H]2C(=O)N[C@@H](Cc2ccc(Cl)cc2)C(=O)O)C[C@@H]2CCCC[C@@H]21)C(=O)O
B6: apelin polypeptide SEQ ID NO: 51 (peptide)
peptide: Ac-RQRP[hArg][NMeL]SHKG[Oic][Phe(4-I)]P[dBip]-OH
B7: apelin polypeptide SEQ ID NO: 59 (peptide)
peptide: Ac-[Orn]F[hArg][hArg]Q[hArg]P[dR][NMeL]SHKG[Oic][Nle][Phe(4-Cl)]-OH
SMILES: CCCC[C@H](NC(=O)[C@@H]1C[C@@H]2CCCC[C@@H]2N1C(=O)CNC(=O)[C@H](CCCCN)NC(=O)[C@H](Cc1c[nH]cn1)NC(=O)[C@H](CO)NC(=O)[C@H](CC(C)C)N(C)C(=O)[C@@H](CCCNC(=N)N)NC(=O)[C@@H]1CCCN1C(=O)[C@H](CCCCNC(=N)N)NC(=O)[C@H](CCC(N)=O)NC(=O)[C@H](CCCCNC(=N)N)NC(=O)[C@H](CCCCNC(=N)N)NC(=O)[C@H](Cc1ccccc1)NC(=O)[C@H](CCCN)NC(C)=O)C(=O)N[C@@H](Cc1ccc(Cl)cc1)C(=O)O
B8: apelin polypeptide SEQ ID NO: 55 (peptide)
peptide: Ac-[dQ][hArg]P[NMeR][Cha]SHKG[Oic][Nle]P[dPhe(4-Cl)]-OH
SMILES: CCCC[C@H](NC(=O)[C@@H]1C[C@@H]2CCCC[C@@H]2N1C(=O)CNC(=O)[C@H](CCCCN)NC(=O)[C@H](Cc1c[nH]cn1)NC(=O)[C@H](CO)NC(=O)[C@H](CC1CCCCC1)NC(=O)[C@H](CCCNC(=N)N)N(C)C(=O)[C@@H]1CCCN1C(=O)[C@H](CCCCNC(=N)N)NC(=O)[C@@H](CCC(N)=O)NC(C)=O)C(=O)N1CCC[C@H]1C(=O)N[C@H](Cc1ccc(Cl)cc1)C(=O)O
B9: apelin polypeptide SEQ ID NO: 100 (peptide)
peptide: {20K mPEGacetamide}-[Mpa]RQRP[hArg][Cha]SHKG[Oic][Nle]P[Phe(4-Cl)]-OH
modifications: numbers in words are those of the source; also: 20 kDa PEG conjugate
B10: apelin polypeptide SEQ ID NO: 58 (peptide)
peptide: Ac-[Orn]F[hArg][hArg]Q[hArg][Oic][dR][Cha]SHKG[Oic][Nle][Phe(4-Cl)]-OH
SMILES: CCCC[C@H](NC(=O)[C@@H]1C[C@@H]2CCCC[C@@H]2N1C(=O)CNC(=O)[C@H](CCCCN)NC(=O)[C@H](Cc1c[nH]cn1)NC(=O)[C@H](CO)NC(=O)[C@H](CC1CCCCC1)NC(=O)[C@@H](CCCNC(=N)N)NC(=O)[C@@H]1C[C@@H]2CCCC[C@@H]2N1C(=O)[C@H](CCCCNC(=N)N)NC(=O)[C@H](CCC(N)=O)NC(=O)[C@H](CCCCNC(=N)N)NC(=O)[C@H](CCCCNC(=N)N)NC(=O)[C@H](Cc1ccccc1)NC(=O)[C@H](CCCN)NC(C)=O)C(=O)N[C@@H](Cc1ccc(Cl)cc1)C(=O)O
B11: apelin polypeptide SEQ ID NO: 52 (peptide)
peptide: Ac-[dR]QRP[hArg][NMeL]SHKG[Oic][Phe(4-I)]P[dBip]-OH
SMILES: CC(=O)N[C@H](CCCNC(=N)N)C(=O)N[C@@H](CCC(N)=O)C(=O)N[C@@H](CCCNC(=N)N)C(=O)N1CCC[C@H]1C(=O)N[C@@H](CCCCNC(=N)N)C(=O)N(C)[C@@H](CC(C)C)C(=O)N[C@@H](CO)C(=O)N[C@@H](Cc1c[nH]cn1)C(=O)N[C@@H](CCCCN)C(=O)NCC(=O)N1[C@H](C(=O)N[C@@H](Cc2ccc(I)cc2)C(=O)N2CCC[C@H]2C(=O)N[C@H](Cc2ccc(-c3ccccc3)cc2)C(=O)O)C[C@@H]2CCCC[C@@H]21
B12: apelin polypeptide SEQ ID NO: 96 (peptide)
peptide: [pGlu]RP[hArg][Cha][Pra′](NPeg9)HKG[Oic][Nle]P[Phe(4-Cl)]-OH
B13: apelin polypeptide SEQ ID NO: 57 (peptide)
peptide: Ac-[Orn]F[hArg][hArg]Q[hArg]P[NMeR][Cha]SHKG[Oic][Nle][Phe(4-Cl)]-OH
SMILES: CCCC[C@H](NC(=O)[C@@H]1C[C@@H]2CCCC[C@@H]2N1C(=O)CNC(=O)[C@H](CCCCN)NC(=O)[C@H](Cc1c[nH]cn1)NC(=O)[C@H](CO)NC(=O)[C@H](CC1CCCCC1)NC(=O)[C@H](CCCNC(=N)N)N(C)C(=O)[C@@H]1CCCN1C(=O)[C@H](CCCCNC(=N)N)NC(=O)[C@H](CCC(N)=O)NC(=O)[C@H](CCCCNC(=N)N)NC(=O)[C@H](CCCCNC(=N)N)NC(=O)[C@H](Cc1ccccc1)NC(=O)[C@H](CCCN)NC(C)=O)C(=O)N[C@@H](Cc1ccc(Cl)cc1)C(=O)O
B14: apelin polypeptide SEQ ID NO: 53 (peptide)
peptide: QRPRLSHKGXFPX
modifications: {Acetyl-NH}Q[hArg]Pr[NMeLeu]SHKG[Oic][pI-Phe]P[D-Bip]{COOH}
B15: apelin polypeptide SEQ ID NO: 54 (peptide)
peptide: Ac-Q[dR]P[NMeR][Cha]SHKG[Oic][Nle][d1Nal]-OH
SMILES: CCCC[C@H](NC(=O)[C@@H]1C[C@@H]2CCCC[C@@H]2N1C(=O)CNC(=O)[C@H](CCCCN)NC(=O)[C@H](Cc1c[nH]cn1)NC(=O)[C@H](CO)NC(=O)[C@H](CC1CCCCC1)NC(=O)[C@H](CCCNC(=N)N)N(C)C(=O)[C@@H]1CCCN1C(=O)[C@@H](CCCNC(=N)N)NC(=O)[C@H](CCC(N)=O)NC(C)=O)C(=O)N[C@H](Cc1cccc2ccccc12)C(=O)O
B16: apelin polypeptide SEQ ID NO: 50 (peptide)
peptide: Ac-[dR]Q[hArg]P[dR][NMeL]SHKG[Oic][Phe(4-I)]P[dBip]-OH

What follows are binders tested against T1, rat APJ receptor (assay: cell-based or functional assay).

EC50 Rat APJ Receptor (µM), GTPγS assay [µM] | Binder
0.00212 | B1
0.000968 | B2
0.00299 | B3
0.00246 | B4
0.00127 | B5

The binders below were run against T2, human APJ receptor (assay: cell-based or functional assay).

EC50 Human APJ Receptor (µM), GTPγS assay [µM] | Binder
0.00208 | B1
0.00277 | B4
0.000561 | B5

What follows are binders tested against T3, human APJ receptor (assay: cell-based or functional assay).

EC50 Human APJ Receptor [nM] | Binder
0.37 | B6
2.08 | B7
31.6 | B8
8.06 | B9
1.17 | B10
0.623 | B11
2.02 | B12
0.412 | B13
5.18 | B14
30.1 | B15
1.43 | B16

The binders below were run against T4, rat APJ receptor (assay: cell-based or functional assay).

EC50 Rat APJ Receptor [nM] | Binder
1.26 | B6
4.57 | B7
145 | B8
45.4 | B9
5.32 | B10
1.14 | B11
14.6 | B12
0.787 | B13
5.98 | B14
312 | B15
1.68 | B16
